This test concerns the target Fer F-BAR domain (human) (UniProt P16591). In words: AUC.

Chain of Fer F-BAR domain (P16591 1-264): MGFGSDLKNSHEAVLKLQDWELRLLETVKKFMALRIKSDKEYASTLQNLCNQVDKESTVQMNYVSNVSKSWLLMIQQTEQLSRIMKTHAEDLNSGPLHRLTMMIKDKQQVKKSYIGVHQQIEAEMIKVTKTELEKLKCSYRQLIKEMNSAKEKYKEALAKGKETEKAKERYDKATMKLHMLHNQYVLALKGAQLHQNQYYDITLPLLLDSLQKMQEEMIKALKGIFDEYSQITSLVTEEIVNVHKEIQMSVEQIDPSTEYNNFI

Substance “Fer F-BAR domain (from UniProt P16591 1-259) (domain or fragment)” had a stoichiometry N of 2 dimers.

One may read the stoichiometry N as the number of molecules, sites or subunits per partner or assembly.

For the origin of these results see paper PMC4691284.
